Measured values published in US5444151A, “Platelet derived growth factor antagonists” (Ludwig Institute for Cancer Research, priority 1992, dated 1995).

Tested on: human foreskin fibroblasts
Experiment: Ligand stimulated [3H]thymidine incorporation
Format: cell-based
From the text: The possible role of peptide 16T as an antagonist for PDGF activity in vivo was investigated. Following the methodology of Betsholtz et al., J. Cell Physiol 118: 203-210 (1984), the disclosure of which is incorporated by reference, [^3 H] thymidine incorporation by human fibroblasts in the presence of various peptides was studied.

B1: PDGF-BB: platelet derived growth factor B chain homodimer (protein, UniProt P01127 82-190, looked up)
Platelet-derived growth …: SLGSLTIAEPAMIAECKTRTEVFEISRRLIDRTNANFLVWPPCVEVQRCSGCCNNRNVQCRPTQVQLRPVQVRKIEIVRKKPIFKKATVTLEDHLACKCETVAAARPVT
[3H]thymidine incorporation, ligand alone (no peptide (unstimulated control 483 cpm), mean of duplicates): 1918 cpm | Stimulation of [3H]thymidine incorporation by ligand (no peptide, versus unstimulated control): 4 fold
